Test results from patent publication US20060127985A1 (IMMUNEX, published 2006).

Key:
[1] = biological target: T1, human 4-1BB ligand (4-1BB-L), cell surface (human, UniProt P41273 1-254); test: slide autoradiography on transfected CV-1 cells
T1 construct: Native on the anti-CD3-stimulated PL1 (PL-1) T cell clone, the source of the cDNA; Recombinant full length on transfected CV-1/EBNA cells; also called hu4-1BB-L; clone 7A

[2] = biological target: T2, murine 4-1BB ligand (4-1BB-L), cell surface (murine, UniProt P41274 1-309); test: Scatchard analysis, 125I-4-1BB/Fc binding to EL4 6.1C10 cells
T2 construct: Native on EL4 6.1C10 and EL4 6.1 thymoma cells, the source of the cDNA; Recombinant full length on transfected COS and CV-1 cells; also called mu4-1BB-L; native surface mu4-1BB-L
T2 sequence: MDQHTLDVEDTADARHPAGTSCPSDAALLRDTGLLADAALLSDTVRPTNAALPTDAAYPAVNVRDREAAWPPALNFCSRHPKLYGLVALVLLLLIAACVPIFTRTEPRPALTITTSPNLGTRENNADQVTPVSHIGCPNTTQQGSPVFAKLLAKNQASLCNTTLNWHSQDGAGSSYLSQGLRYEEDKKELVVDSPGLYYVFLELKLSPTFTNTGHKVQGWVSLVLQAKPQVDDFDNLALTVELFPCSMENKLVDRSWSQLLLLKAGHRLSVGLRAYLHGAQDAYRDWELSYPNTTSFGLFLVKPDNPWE
Description: Several cell lines were screened for the ability to bind the radioiodinated murine 4-1BB/Fc fusion protein described in Example 1. Briefly, quantitative binding studies were performed according to standard methodology, and Scatchard plots were derived for the various cell lines. […] The EL4 6.1C10 cell line was derived from a subclone designated EL4 6.1 by using a cell sorter to enrich for a cell population expressing high levels of murine type I Interleukin-1 receptor, as described in U.S. Pat. No. 4,968,607. EL4 6.1 had been derived from a mouse thymoma cell line EL-4 (ATCC TIB39) as described by MacDonald et al. (J. Immunol. 135:3944, 1985) and Lowenthal and MacDonald (J. Exp. Med. 164:1060, 1986).

T1 sequence (P41273 whole entry): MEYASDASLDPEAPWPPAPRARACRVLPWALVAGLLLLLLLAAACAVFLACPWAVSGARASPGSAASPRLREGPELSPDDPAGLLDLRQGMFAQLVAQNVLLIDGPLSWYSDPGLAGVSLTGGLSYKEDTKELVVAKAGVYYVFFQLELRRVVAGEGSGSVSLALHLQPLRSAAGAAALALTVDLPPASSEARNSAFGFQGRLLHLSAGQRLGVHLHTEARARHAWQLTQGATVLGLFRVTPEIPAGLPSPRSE

binding result [1]: no binding
Ka [2]: ~2e+09 M⁻¹
B1: murine 4-1BB/Fc fusion protein (Fc fusion)
chain: VQNSCDNCQPGTFCRKYNPVCKSCPPSTFSSIGGQPNCNICRVCAGYFRFKKFCSSTHNAECECIEGFHCLGPQCTRCEKDCRPGQELTKQGCKTCSLGTFNDQNGTGVCRPWTNCSLDGRSVLKTGTTEKDVVCGPPVVSFSPSTTISVTPEEPRSCDKTHTCPPCPAPELLGGPSVFLFPPKPKDTLMISRTPEVTCVVVDVSHEDPEVKFNWYVDGVEVHNAKTKPREEQYNSTYRVVSVLTVLHQDWLNGKDYKCKVSNKALPAPMQKTISKAKGQPREPQVYTLPPSRDELTKNQVSLTCLVKGFYPRHIAVEWESNGQPENNYKTTPPVLDSDGSFFLYSKLTVDKSRWQQGNVFSCSVMHEALHNHYTQKSLSLSPGK
modifications: 125I-radioiodinated where used as tracer
notes: The murine IL-7 leader of the vector is cleaved on secretion; Fc is joined through the BglII site; also called mu4-1BB/Fc; soluble murine 4-1BB/Fc
